Patent publication US10513713B2, “Modified host cells having tolerance to α-olefins” (priority 2014, dated 2019)

System: E. coli K12 ΔacrAB
Experiment: Survival assay on agar plate in olefin saturated atmosphere, strains producing AcrAB or AcrB variants
Type: cell-based
Conditions: 1-hexene saturated atmosphere; for tolerance to 1-hexene relative to wild type AcrB sequence: single mutation AcrB variants, FIG. 4A
Protocol: FIG. 2: impact of AcrAB production on growth, in presence of styrene 1-hexene, 1-octene and 1-nonene on cell growth. A: Different concentrations of styrene were added to an OD600=0.2 culture of E. coli K12 ΔacrAB containing the pABc (white) or the control plasmid p0c (black). OD density was monitored after 2 hours of growth at 37° C. The bars represent standard deviation between duplicates. B: A survival test in presence of 1-hexene, 1-octene, or 1-nonene saturated atmosphere was performed. Six different dilutions of cultures (10 cells to 10^7 cells, left to right on the figure) were spotted in triplicate on an agar plates. Plates were then exposed to the aforementioned chemicals.
FIG. 4: Impact of beneficial mutations on AcrB on tolerance to 1-hexene, A: Survival test of E. coli strain producing either the AcrB wild type or variants in a 1-hexene saturated atmosphere was performed. Two dilutions of cultures (Dilution 1: 10^5 cells and Dilution 2: 10^4 cells) were spotted in triplicate on an agar plate. B: Localization of the 6 beneficial mutations represented on the structure of a single monomer of AcrB or C: on the structure of the AcrB trimer.
FIG. 6: Impact of beneficial mutations on AcrB on tolerance to 1-hexene. A: Survival test of E. coli strain producing either the AcrB Wild type or variants with 1, 2 or several beneficial mutations, in an 1-hexene saturated atmosphere was performed. Two dilutions of cultures (Dilution 2: 10^4 cells and Dilution 3: 10^3 cells) were spotted in triplicate on an agar plate. B: Soluble fraction of total proteins from a culture of strains producing either the wild type, either the variant F617L, either the variant 6 (A279T, Q584R, F617L) were analyzed by western blot using anti-His antibody.
For agar plate based assays, cells were first streaked overnight and few colonies were used to inoculate a preculture of 6 mL of LB-Cm with glucose (2 g/L) and arabinose (5 mM). At OD60=1 at 37° C., the cultures were used to prepare a dilution series. Dilution 0 (D0) corresponds to the OD600, =1, and contains ˜10^9 cells/mL. Dilution 1 (D1) is a 10-fold dilution of D0, dilution 2 (D2) a 10-fold dilution of D1 up to dilution 5 (D5), which contains ˜10^4 cells/mL. 10 μL of each dilution was spotted in triplicate on LB-agar plates (single well plates, Thermo Scientific, Waltham, Mass.) containing 30 mL of LB-agar, Cm (30 mg/L), glucose (2 g/L) and arabinose (5 mM). Small containers (microfuge tube lids) were placed on the open lid of the agar plate and filled with 400 to 600 μL of 1-hexene or 1-octene or with 75 μL of 1-nonene. The agar plates were then inverted over the lid, cells facing the olefin compound, sealed with parafilm, placed in the plastic bag (the original packaging for the petri dishes) and incubated for 2 days at room temperature. For 1-octene, a second condition, via overlaying 2 mL of compound on the top of the agar submerging the cells, was used. TolC overexpression impact was examined using the same method, but in this case, the LB media and the LB-agar were also supplemented with ampicillin (100 mg/L) and IPTG (100 μM). […]

Molecule | efficiency among the beneficial mutations | tolerance to 1-hexene relative to wild type AcrB sequence
A279T: E. coli AcrB (SEQ ID NO:1) variant with amino acid mutation A279T (protein, E. coli) MPNFFIDRPIFAWVIAIIIMLAGGLAILKLPVAQYPTIAPPAVTISASYPGADAKTVQDTVTQVIEQNMNGIDNLMYMSSNSDSTGTVQITLTFESGTDADIAQVQVQNKLQLAMPLLPQEVQQQGVSVEKSSSSFLMVVGVINTDGTMTQEDISDYVAANMKDAISRTSGVGDVQLFGSQYAMRIWMNPNELNKFQLTPVDVITAIKAQNAQVAAGQLGGTPPVKGQQLNASIIAQTRLTSTEEFGKILLKVNQDGSRVLLRDVAKIELGGENYDIITEFNGQPASGLGIKLATGANALDTAAAIRAELAKMEPFFPSGLKIVYPYDTTPFVKISIHEVVKTLVEAIILVFLVMYLFLQNFRATLIPTIAVPVVLLGTFAVLAAFGFSINTLTMFGMVLAIGLLVDDAIVVVENVERVMAEEGLPPKEATRKSMGQIQGALVGIAMVLSAVFVPMAFFGGSTGAIYRQFSITIVSAMALSVLVALILTPALCATMLKPIAKGDHGEGKKGFFGWFNRMFEKSTHHYTDSVGGILRSTGRYLVLYLIIVVGMAYLFVRLPSSFLPDEDQGVFMTMVQLPAGATQERTQKVLNEVTHYYLTKEKNNVESVFAVNGFGFAGRGQNTGIAFVSLKDWADRPGEENKVEAITMRATRAFSQIKDAMVFAFNLPAIVELGTATGFDFELIDQAGLGHEKLTQARNQLLAEAAKHPDMLTSVRPNGLEDTPQFKIDIDQEKAQALGVSINDINTTLGAAWGGSYVNDFIDRGRVKKVYVMSEAKYRMLPDDIGDWYVRAADGQMVPFSAFSSSRWEYGSPRLERYNGLPSMEILGQAAPGKSTGEAMELMEQLASKLPTGVGYDWTGMSYQERLSGNQAPSLYAISLIVVFLCLAALYESWSIPFSVMLVVPLGVIGALLAATFRGLTNDVYFQVGLLTTIGLSAKNAILIVEFAKDLMDKEGKGLIEATLDAVRMRLRPILMTSLAFILGVMPLVISTGAGSGAQNAVGTGVMGGMVTATVLAIFFVPVFFVVVRRRFSRKNEDIEHSHTVDHH | more efficient | improvement in tolerance
F617L: E. coli AcrB (SEQ ID NO:1) variant with amino acid mutation F617L (protein, E. coli) MPNFFIDRPIFAWVIAIIIMLAGGLAILKLPVAQYPTIAPPAVTISASYPGADAKTVQDTVTQVIEQNMNGIDNLMYMSSNSDSTGTVQITLTFESGTDADIAQVQVQNKLQLAMPLLPQEVQQQGVSVEKSSSSFLMVVGVINTDGTMTQEDISDYVAANMKDAISRTSGVGDVQLFGSQYAMRIWMNPNELNKFQLTPVDVITAIKAQNAQVAAGQLGGTPPVKGQQLNASIIAQTRLTSTEEFGKILLKVNQDGSRVLLRDVAKIELGGENYDIIAEFNGQPASGLGIKLATGANALDTAAAIRAELAKMEPFFPSGLKIVYPYDTTPFVKISIHEVVKTLVEAIILVFLVMYLFLQNFRATLIPTIAVPVVLLGTFAVLAAFGFSINTLTMFGMVLAIGLLVDDAIVVVENVERVMAEEGLPPKEATRKSMGQIQGALVGIAMVLSAVFVPMAFFGGSTGAIYRQFSITIVSAMALSVLVALILTPALCATMLKPIAKGDHGEGKKGFFGWFNRMFEKSTHHYTDSVGGILRSTGRYLVLYLIIVVGMAYLFVRLPSSFLPDEDQGVFMTMVQLPAGATQERTQKVLNEVTHYYLTKEKNNVESVFAVNGFGLAGRGQNTGIAFVSLKDWADRPGEENKVEAITMRATRAFSQIKDAMVFAFNLPAIVELGTATGFDFELIDQAGLGHEKLTQARNQLLAEAAKHPDMLTSVRPNGLEDTPQFKIDIDQEKAQALGVSINDINTTLGAAWGGSYVNDFIDRGRVKKVYVMSEAKYRMLPDDIGDWYVRAADGQMVPFSAFSSSRWEYGSPRLERYNGLPSMEILGQAAPGKSTGEAMELMEQLASKLPTGVGYDWTGMSYQERLSGNQAPSLYAISLIVVFLCLAALYESWSIPFSVMLVVPLGVIGALLAATFRGLTNDVYFQVGLLTTIGLSAKNAILIVEFAKDLMDKEGKGLIEATLDAVRMRLRPILMTSLAFILGVMPLVISTGAGSGAQNAVGTGVMGGMVTATVLAIFFVPVFFVVVRRRFSRKNEDIEHSHTVDHH | more efficient | improvement in tolerance
